How the values were obtained:
Assay in all cases: cell-based or functional assay
[1] = target: HIV-1 Env of pseudovirus 1012_11_TC21_3257 (HIV-1)
[2] = target: HIV-1 Env of pseudovirus 191821_E6_1 (HIV-1)
[3] = target: HIV-1 Env of pseudovirus 231965.c01 (HIV-1)
[4] = target: HIV-1 Env of pseudovirus 3103.v3.c10 (HIV-1)
[5] = target: HIV-1 Env of pseudovirus 6480.v4.c25 (HIV-1)
[6] = target: HIV-1 Env of pseudovirus 928-28 (HIV-1)
[7] = target: HIV-1 Env of pseudovirus A07412M1.vrc12 (HIV-1)
[8] = target: HIV-1 Env of pseudovirus BF1266.431a (HIV-1)
[9] = target: HIV-1 Env of pseudovirus BJOX010000.06.2 (HIV-1)
[10] = target: HIV-1 Env of pseudovirus BJOX025000.01.1 (HIV-1)
[11] = target: HIV-1 Env of pseudovirus BJOX028000.10.3 (HIV-1)
[12] = target: HIV-1 Env of pseudovirus CAAN5342.A2 (HIV-1)
[13] = target: HIV-1 Env of pseudovirus CAP210.2.00.E8 (HIV-1)
[14] = target: HIV-1 Env of pseudovirus CAP45.2.00.G3 (HIV-1)
[15] = target: HIV-1 Env of pseudovirus CNE5 (HIV-1)
[16] = target: HIV-1 Env of pseudovirus CNE58 (HIV-1)
[17] = target: HIV-1 Env of pseudovirus Ce0393_C3 (HIV-1)
[18] = target: HIV-1 Env of pseudovirus Ce2060_G9 (HIV-1)
[19] = target: HIV-1 Env of pseudovirus Du156.12 (HIV-1)
[20] = target: HIV-1 Env of pseudovirus Q23.17 (HIV-1)
[21] = target: HIV-1 Env of pseudovirus Q842.d12 (HIV-1)
[22] = target: HIV-1 Env of pseudovirus R1166.c01 (HIV-1)
[23] = target: HIV-1 Env of pseudovirus R2184.c04 (HIV-1)
[24] = target: HIV-1 Env of pseudovirus R3265.c06 (HIV-1)
[25] = target: HIV-1 Env of pseudovirus REJO4541.67 (HIV-1)
[26] = target: HIV-1 Env of pseudovirus THRO4156.18 (HIV-1)
[27] = target: HIV-1 Env of pseudovirus TRO.11 (HIV-1)
[28] = target: HIV-1 Env of pseudovirus X1193_c1 (HIV-1)
[29] = target: HIV-1 Env of pseudovirus X1632_S2_B10 (HIV-1)
[30] = target: HIV-1 Env of pseudovirus X2088_c9 (HIV-1)
[31] = target: HIV-1 Env of pseudovirus X2131_C1_B5 (HIV-1)
[32] = target: HIV-1 Env of pseudovirus ZM197M.PB7 (HIV-1)
92BR020 N136A (HIV-1) = target: 92BR020 N136A (HIV-1)
[33] = target: 92BR020 N136A + N156A + N301A (HIV-1)
92BR020 N301A (HIV-1) = target: 92BR020 N301A (HIV-1)
92BR020 N332A (HIV-1) = target: 92BR020 N332A (HIV-1)
92BR020 Q328A (HIV-1) = target: 92BR020 Q328A (HIV-1)
[34] = target: BG505 (T332N) N137A (HIV-1)
[35] = target: BG505 (T332N) N156A (HIV-1)
JR-CSF D325A (HIV-1) = JR-CSF D325A (HIV-1) (UniProt P20871)
JR-CSF G324A (HIV-1) = JR-CSF G324A (HIV-1) (UniProt P20871)
JR-CSF N386A (HIV-1) = JR-CSF N386A (HIV-1) (UniProt P20871)
JR-CSF N392A (HIV-1) = JR-CSF N392A (HIV-1) (UniProt P20871)

BG18 IgG (354BG18) (antibody)
IC50 in TZM-bl assay [1]: 0.003 µg/mL
IC80 in TZM-bl assay [1]: 0.012 µg/mL
IC50 in TZM-bl assay [2]: 14.1 µg/mL
IC80 in TZM-bl assay [2]: > 30 µg/mL
IC50 in TZM-bl assay [3]: > 30 µg/mL
IC80 in TZM-bl assay [3]: > 30 µg/mL
IC50 in TZM-bl assay [4]: 0.002 µg/mL
IC80 in TZM-bl assay [4]: 0.005 µg/mL
IC50 in TZM-bl assay [5]: 0.016 µg/mL
IC80 in TZM-bl assay [5]: 0.116 µg/mL
IC50 in TZM-bl assay [6]: 0.761 µg/mL
IC80 in TZM-bl assay [6]: 3.93 µg/mL
IC50 in TZM-bl assay [7]: 0.081 µg/mL
IC80 in TZM-bl assay [7]: 1.72 µg/mL
IC50 in TZM-bl assay [8]: > 30 µg/mL
IC80 in TZM-bl assay [8]: > 30 µg/mL
IC50 in TZM-bl assay [9]: > 30 µg/mL
IC80 in TZM-bl assay [9]: > 30 µg/mL
IC50 in TZM-bl assay [10]: > 30 µg/mL
IC80 in TZM-bl assay [10]: > 30 µg/mL
IC50 in TZM-bl assay [11]: 0.474 µg/mL
IC80 in TZM-bl assay [11]: 14.9 µg/mL
IC50 in TZM-bl assay [12]: 0.008 µg/mL
IC80 in TZM-bl assay [12]: 0.04 µg/mL
IC50 in TZM-bl assay [13]: 3.47 µg/mL
IC80 in TZM-bl assay [13]: 10.7 µg/mL
IC50 in TZM-bl assay [14]: > 30 µg/mL
IC80 in TZM-bl assay [14]: > 30 µg/mL
IC50 in TZM-bl assay [15]: > 30 µg/mL
IC80 in TZM-bl assay [15]: > 30 µg/mL
IC50 in TZM-bl assay [16]: 0.024 µg/mL
IC80 in TZM-bl assay [16]: 0.073 µg/mL
IC50 in TZM-bl assay [17]: > 30 µg/mL
IC80 in TZM-bl assay [17]: > 30 µg/mL
IC50 in TZM-bl assay [18]: > 30 µg/mL
IC80 in TZM-bl assay [18]: > 30 µg/mL
IC50 in TZM-bl assay [19]: 0.003 µg/mL
IC80 in TZM-bl assay [19]: 0.01 µg/mL
IC50 in TZM-bl assay [20]: 0.006 µg/mL
IC80 in TZM-bl assay [20]: 0.02 µg/mL
IC50 in TZM-bl assay [21]: 14 µg/mL
IC80 in TZM-bl assay [21]: > 30 µg/mL
IC50 in TZM-bl assay [22]: > 30 µg/mL
IC80 in TZM-bl assay [22]: > 30 µg/mL
IC50 in TZM-bl assay [23]: > 30 µg/mL
IC80 in TZM-bl assay [23]: > 30 µg/mL
IC50 in TZM-bl assay [24]: > 30 µg/mL
IC80 in TZM-bl assay [24]: > 30 µg/mL
IC50 in TZM-bl assay [25]: > 30 µg/mL
IC80 in TZM-bl assay [25]: > 30 µg/mL
IC50 in TZM-bl assay [26]: > 30 µg/mL
IC80 in TZM-bl assay [26]: > 30 µg/mL
IC80 in TZM-bl assay [27]: 0.002 µg/mL
IC50 in TZM-bl assay [28]: 0.005 µg/mL
IC80 in TZM-bl assay [28]: 0.022 µg/mL
IC50 in TZM-bl assay [29]: > 30 µg/mL
IC80 in TZM-bl assay [29]: > 30 µg/mL
IC50 in TZM-bl assay [30]: 0.004 µg/mL
IC80 in TZM-bl assay [30]: 0.009 µg/mL
IC50 in TZM-bl assay [31]: 0.002 µg/mL
IC80 in TZM-bl assay [31]: 0.008 µg/mL
IC50 in TZM-bl assay [32]: > 30 µg/mL
IC80 in TZM-bl assay [32]: > 30 µg/mL

PGT121 (antibody)
IC50 in TZM-bl assay (92BR020 N136A (HIV-1)): 0.002 µg/mL
IC50 in TZM-bl assay [33]: 0.001 µg/mL
IC50 in TZM-bl assay (92BR020 N301A (HIV-1)): 0.003 µg/mL
IC50 in TZM-bl assay (92BR020 N332A (HIV-1)): 0.08 µg/mL
IC50 in TZM-bl assay (92BR020 Q328A (HIV-1)): 0.002 µg/mL
IC50 in TZM-bl assay [34]: 0.002 µg/mL
IC50 in TZM-bl assay [35]: 0.007 µg/mL
IC50 in TZM-bl assay [1]: 0.008 µg/mL
IC80 in TZM-bl assay [1]: 0.034 µg/mL
IC50 in TZM-bl assay [2]: > 10 µg/mL
IC80 in TZM-bl assay [2]: > 10 µg/mL
IC50 in TZM-bl assay [3]: > 10 µg/mL
IC80 in TZM-bl assay [3]: > 10 µg/mL
IC50 in TZM-bl assay [4]: 0.024 µg/mL
IC80 in TZM-bl assay [4]: 0.073 µg/mL
IC50 in TZM-bl assay [5]: 0.008 µg/mL
IC50 in TZM-bl assay [6]: > 10 µg/mL
IC80 in TZM-bl assay [6]: > 10 µg/mL
IC50 in TZM-bl assay [7]: 0.034 µg/mL
IC80 in TZM-bl assay [7]: 0.255 µg/mL
IC50 in TZM-bl assay [8]: > 10 µg/mL
IC80 in TZM-bl assay [8]: > 10 µg/mL
IC50 in TZM-bl assay [9]: > 10 µg/mL
IC80 in TZM-bl assay [9]: > 10 µg/mL
IC50 in TZM-bl assay [10]: > 10 µg/mL
IC80 in TZM-bl assay [10]: > 10 µg/mL
IC50 in TZM-bl assay [11]: > 10 µg/mL
IC80 in TZM-bl assay [11]: > 10 µg/mL
IC50 in TZM-bl assay [12]: 0.008 µg/mL
IC80 in TZM-bl assay [12]: 0.026 µg/mL
IC50 in TZM-bl assay [13]: > 10 µg/mL
IC80 in TZM-bl assay [13]: > 10 µg/mL
IC50 in TZM-bl assay [14]: 1.3 µg/mL
IC80 in TZM-bl assay [14]: > 10 µg/mL
IC50 in TZM-bl assay [15]: > 10 µg/mL
IC80 in TZM-bl assay [15]: > 10 µg/mL
IC50 in TZM-bl assay [16]: > 10 µg/mL
IC80 in TZM-bl assay [16]: > 10 µg/mL
IC50 in TZM-bl assay [17]: > 10 µg/mL
IC80 in TZM-bl assay [17]: > 10 µg/mL
IC50 in TZM-bl assay [18]: > 10 µg/mL
IC80 in TZM-bl assay [18]: > 10 µg/mL
IC50 in TZM-bl assay [19]: 0.006 µg/mL
IC80 in TZM-bl assay [19]: 0.019 µg/mL
IC50 in TZM-bl assay [20]: 0.005 µg/mL
IC80 in TZM-bl assay [20]: 0.017 µg/mL
IC50 in TZM-bl assay [21]: 0.01 µg/mL
IC80 in TZM-bl assay [21]: 0.037 µg/mL
IC50 in TZM-bl assay [22]: > 10 µg/mL
IC80 in TZM-bl assay [22]: > 10 µg/mL
IC50 in TZM-bl assay [23]: > 10 µg/mL
IC80 in TZM-bl assay [23]: > 10 µg/mL
IC50 in TZM-bl assay [24]: > 10 µg/mL
IC80 in TZM-bl assay [24]: > 10 µg/mL
IC50 in TZM-bl assay [25]: > 10 µg/mL
IC80 in TZM-bl assay [25]: > 10 µg/mL
IC50 in TZM-bl assay [26]: > 10 µg/mL
IC80 in TZM-bl assay [26]: > 10 µg/mL
IC80 in TZM-bl assay [27]: 0.037 µg/mL
IC80 in TZM-bl assay [28]: 0.088 µg/mL
IC50 in TZM-bl assay [29]: > 10 µg/mL
IC80 in TZM-bl assay [29]: > 10 µg/mL
IC50 in TZM-bl assay [30]: 0.007 µg/mL
IC80 in TZM-bl assay [31]: 0.037 µg/mL
IC50 in TZM-bl assay [32]: > 10 µg/mL
IC80 in TZM-bl assay [32]: > 10 µg/mL
IC50 in TZM-bl assay (JR-CSF D325A (HIV-1)): 0.079 µg/mL
IC50 in TZM-bl assay (JR-CSF G324A (HIV-1)): 0.044 µg/mL
IC50 in TZM-bl assay (JR-CSF N386A (HIV-1)): 0.024 µg/mL
IC50 in TZM-bl assay (JR-CSF N392A (HIV-1)): 0.017 µg/mL

— patent US11325966
